These are literature values, as cited in publication PMC12687026.

The test system of data set [1] is His194. Put plainly: kinetics. Conditions: green (unconverted) LEA.
Data set [2] concerns Glu212. The experiment in a line: kinetics. As to conditions: green (unconverted) LEA.

For the substance “LEA (least evolved ancestor), engineered Kaede-like green-to-red photoconvertible fluorescent protein (synthetic construct (reconstructed ancestral coral fluorescent protein))”, the pKa entry in data set [1] is “∼7.5”; in data set [2] it was “∼4.5”.
